Biological target: GST-PC1 C-terminus deletion mutant SH3
Assay: pull-down

myc-tagged QLα12 (constitutively active, GTPase-deficient Gα12) (from UniProt P27600 48-379) (natural protein)
binding relative to PC1-FLCT: 50%

Source: paper PMC2998059
